# Results from publication PMC6581795, “Phosphorylation of FANCD2 Inhibits the FANCD2/FANCI Complex and Suppresses the Fanconi Anemia Pathway in the Absence of DNA Damage”.
# B1: ICL14 Y-shaped DNA (mixed)
# DNA 1: CATTGTGAATTCGCCTCTCTGTCTAGCCGAAGCTCGAAACGATCTTGTGC
# DNA 2: GTCCATCAAAGTTCGACTGTGCGGCTAGACAGAGAGGCGAATTCACAATG
# Legend:
# FANCD2-6A;FANCI = FANCD2-6A;FANCI (Homo sapiens;Homo sapiens?, UniProt Q9BXW9;Q9NVI1 1-1451;1-1328, S882A;T884A;S886A;S891A;T896A;S898A|); assay: EMSA; untreated; similar to WT; EMSA: 1 nM DNA, 25 mM Tris-HCl pH 7.5, 100 mM NaCl, 1 mM EDTA, 6% glycerol, 1 mM DTT, room temperature 1 h; 4% PAGE 0.4x TBE at 4 C; conditions: protein: recombinant;recombinant; copies: 1;1
# FANCD2-6A;FANCI, sequence (Q9BXW9 whole entry S882A/T884A/S886A/S891A/T896A/S898A, chain 1 of 2): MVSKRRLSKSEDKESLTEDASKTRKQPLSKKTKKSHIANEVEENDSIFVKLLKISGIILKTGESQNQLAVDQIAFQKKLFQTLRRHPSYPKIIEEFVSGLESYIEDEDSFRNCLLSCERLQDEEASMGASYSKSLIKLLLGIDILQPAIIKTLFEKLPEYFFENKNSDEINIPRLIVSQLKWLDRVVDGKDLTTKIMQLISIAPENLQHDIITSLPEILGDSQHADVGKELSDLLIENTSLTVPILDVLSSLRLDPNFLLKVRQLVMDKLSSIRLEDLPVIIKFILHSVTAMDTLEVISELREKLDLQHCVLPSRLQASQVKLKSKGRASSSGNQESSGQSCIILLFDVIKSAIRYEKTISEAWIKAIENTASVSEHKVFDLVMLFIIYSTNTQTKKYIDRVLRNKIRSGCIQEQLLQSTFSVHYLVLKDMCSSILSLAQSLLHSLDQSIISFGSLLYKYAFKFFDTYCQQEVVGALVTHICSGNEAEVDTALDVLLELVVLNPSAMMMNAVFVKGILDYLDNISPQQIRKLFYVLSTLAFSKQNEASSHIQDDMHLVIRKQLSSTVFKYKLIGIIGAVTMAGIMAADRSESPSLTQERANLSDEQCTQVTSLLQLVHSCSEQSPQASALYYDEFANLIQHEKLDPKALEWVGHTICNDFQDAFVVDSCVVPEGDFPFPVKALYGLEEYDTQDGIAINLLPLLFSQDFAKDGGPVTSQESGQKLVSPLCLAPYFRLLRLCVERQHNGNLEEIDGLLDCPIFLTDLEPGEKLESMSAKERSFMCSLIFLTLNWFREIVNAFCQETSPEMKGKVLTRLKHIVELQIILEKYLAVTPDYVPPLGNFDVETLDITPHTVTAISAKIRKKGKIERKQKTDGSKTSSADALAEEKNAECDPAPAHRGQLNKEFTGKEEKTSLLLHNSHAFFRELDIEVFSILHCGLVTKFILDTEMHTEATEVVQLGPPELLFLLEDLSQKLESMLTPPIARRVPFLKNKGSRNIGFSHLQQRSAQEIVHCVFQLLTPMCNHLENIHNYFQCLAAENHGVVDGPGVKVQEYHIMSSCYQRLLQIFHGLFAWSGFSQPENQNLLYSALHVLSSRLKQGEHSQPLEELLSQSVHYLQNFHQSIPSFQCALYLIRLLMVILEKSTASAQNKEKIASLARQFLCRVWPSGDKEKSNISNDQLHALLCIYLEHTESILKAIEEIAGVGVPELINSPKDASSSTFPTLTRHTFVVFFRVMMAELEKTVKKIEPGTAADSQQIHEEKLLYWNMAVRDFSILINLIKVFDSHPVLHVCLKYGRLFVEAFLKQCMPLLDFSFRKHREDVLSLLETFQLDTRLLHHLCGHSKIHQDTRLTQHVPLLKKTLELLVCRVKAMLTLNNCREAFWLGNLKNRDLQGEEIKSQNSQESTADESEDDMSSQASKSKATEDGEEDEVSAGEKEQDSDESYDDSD
# FANCD2-6A;FANCI, sequence (Q9NVI1 whole entry, stated change not applied, chain 2 of 2): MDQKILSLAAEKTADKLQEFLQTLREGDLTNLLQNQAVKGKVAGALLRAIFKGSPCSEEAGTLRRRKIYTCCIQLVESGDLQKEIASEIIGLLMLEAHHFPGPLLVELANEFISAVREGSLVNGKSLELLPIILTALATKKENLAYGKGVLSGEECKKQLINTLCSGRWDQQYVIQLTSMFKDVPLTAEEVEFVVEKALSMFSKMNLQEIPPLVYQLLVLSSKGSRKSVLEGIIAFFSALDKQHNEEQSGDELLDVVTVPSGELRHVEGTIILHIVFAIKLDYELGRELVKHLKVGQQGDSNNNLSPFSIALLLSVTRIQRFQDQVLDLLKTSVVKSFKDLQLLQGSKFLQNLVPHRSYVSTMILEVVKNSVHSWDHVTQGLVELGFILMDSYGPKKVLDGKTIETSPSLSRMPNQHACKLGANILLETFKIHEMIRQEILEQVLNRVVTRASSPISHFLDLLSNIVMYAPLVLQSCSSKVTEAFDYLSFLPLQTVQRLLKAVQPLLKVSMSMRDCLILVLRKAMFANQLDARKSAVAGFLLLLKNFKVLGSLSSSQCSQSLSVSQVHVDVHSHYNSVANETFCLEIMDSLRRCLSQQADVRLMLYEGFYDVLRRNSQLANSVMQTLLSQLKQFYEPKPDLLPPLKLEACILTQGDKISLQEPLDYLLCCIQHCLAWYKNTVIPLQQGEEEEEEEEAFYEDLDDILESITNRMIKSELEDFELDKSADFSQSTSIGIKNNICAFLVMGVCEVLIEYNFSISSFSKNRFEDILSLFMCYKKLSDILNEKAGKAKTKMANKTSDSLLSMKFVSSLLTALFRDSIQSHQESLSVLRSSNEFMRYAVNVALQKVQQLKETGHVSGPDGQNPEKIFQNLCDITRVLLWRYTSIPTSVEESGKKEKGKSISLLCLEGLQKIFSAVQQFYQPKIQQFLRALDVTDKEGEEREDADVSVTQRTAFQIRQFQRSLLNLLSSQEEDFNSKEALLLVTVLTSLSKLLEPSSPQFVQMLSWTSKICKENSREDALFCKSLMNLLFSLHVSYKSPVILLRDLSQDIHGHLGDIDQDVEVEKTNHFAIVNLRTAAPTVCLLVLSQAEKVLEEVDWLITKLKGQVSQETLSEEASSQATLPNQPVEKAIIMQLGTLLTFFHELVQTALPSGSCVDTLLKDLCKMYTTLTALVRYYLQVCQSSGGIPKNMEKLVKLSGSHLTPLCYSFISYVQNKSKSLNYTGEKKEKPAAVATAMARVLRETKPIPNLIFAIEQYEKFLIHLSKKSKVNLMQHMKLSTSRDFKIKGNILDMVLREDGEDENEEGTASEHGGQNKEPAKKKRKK
# FANCD2 WT;FANCI = FANCD2 WT;FANCI (Homo sapiens;Homo sapiens?, UniProt Q9BXW9;Q9NVI1 1-1451;1-1328, |); assay: EMSA; untreated; EMSA: 1 nM DNA, 25 mM Tris-HCl pH 7.5, 100 mM NaCl, 1 mM EDTA, 6% glycerol, 1 mM DTT, room temperature 1 h; 4% PAGE 0.4x TBE at 4 C; conditions: protein: recombinant;recombinant; copies: 1;1
# FANCD2 WT;FANCI, sequence (Q9BXW9 whole entry, chain 1 of 2): as the sequence (Q9BXW9 whole entry S882A/T884A/S886A/S891A/T896A/S898A, chain 1 of 2) above, with A882S, A884T, A886S, A891S, A896T, A898S counted along it
# FANCD2 WT;FANCI, sequence (Q9NVI1 whole entry, chain 2 of 2): as the sequence (Q9NVI1 whole entry, stated change not applied, chain 2 of 2) above
binder,measurement,setting,value
B1,binding result,FANCD2-6A;FANCI,binds
same,binding result,FANCD2 WT;FANCI,binds
